Reference: PMC8273617
One block for each substance: values may come before it.

Assays:
[1] = biological target: VWF (Homo sapiens) (UniProt P04275); settings: cited from earlier work
[2] = biological target: CD16 (Homo sapiens) (UniProt P08637); settings: cited from earlier work
[3] = biological target: Fc gamma receptor IIIA (FcγRIIIA/CD16) on PTA-6967 NK cells (human) (UniProt P08637)
[4] = biological target: Fc gamma receptor IIIA (FcγRIIIA/CD16) on PTA-6967 NK cells (human) (UniProt P08637); remark: listed apart in the source

Fc gamma receptor IIIA (FcγRIIIA/CD16) on PTA-6967 NK cells (human), sequence (P08637 17-254): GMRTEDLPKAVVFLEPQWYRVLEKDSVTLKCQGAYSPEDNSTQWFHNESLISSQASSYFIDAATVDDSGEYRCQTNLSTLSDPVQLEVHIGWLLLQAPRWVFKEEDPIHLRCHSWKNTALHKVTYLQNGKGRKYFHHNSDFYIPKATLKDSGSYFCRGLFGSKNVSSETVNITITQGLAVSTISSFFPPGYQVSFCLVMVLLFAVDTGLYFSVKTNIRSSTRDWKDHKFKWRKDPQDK
FVIII, sequence (P00451 20-2351): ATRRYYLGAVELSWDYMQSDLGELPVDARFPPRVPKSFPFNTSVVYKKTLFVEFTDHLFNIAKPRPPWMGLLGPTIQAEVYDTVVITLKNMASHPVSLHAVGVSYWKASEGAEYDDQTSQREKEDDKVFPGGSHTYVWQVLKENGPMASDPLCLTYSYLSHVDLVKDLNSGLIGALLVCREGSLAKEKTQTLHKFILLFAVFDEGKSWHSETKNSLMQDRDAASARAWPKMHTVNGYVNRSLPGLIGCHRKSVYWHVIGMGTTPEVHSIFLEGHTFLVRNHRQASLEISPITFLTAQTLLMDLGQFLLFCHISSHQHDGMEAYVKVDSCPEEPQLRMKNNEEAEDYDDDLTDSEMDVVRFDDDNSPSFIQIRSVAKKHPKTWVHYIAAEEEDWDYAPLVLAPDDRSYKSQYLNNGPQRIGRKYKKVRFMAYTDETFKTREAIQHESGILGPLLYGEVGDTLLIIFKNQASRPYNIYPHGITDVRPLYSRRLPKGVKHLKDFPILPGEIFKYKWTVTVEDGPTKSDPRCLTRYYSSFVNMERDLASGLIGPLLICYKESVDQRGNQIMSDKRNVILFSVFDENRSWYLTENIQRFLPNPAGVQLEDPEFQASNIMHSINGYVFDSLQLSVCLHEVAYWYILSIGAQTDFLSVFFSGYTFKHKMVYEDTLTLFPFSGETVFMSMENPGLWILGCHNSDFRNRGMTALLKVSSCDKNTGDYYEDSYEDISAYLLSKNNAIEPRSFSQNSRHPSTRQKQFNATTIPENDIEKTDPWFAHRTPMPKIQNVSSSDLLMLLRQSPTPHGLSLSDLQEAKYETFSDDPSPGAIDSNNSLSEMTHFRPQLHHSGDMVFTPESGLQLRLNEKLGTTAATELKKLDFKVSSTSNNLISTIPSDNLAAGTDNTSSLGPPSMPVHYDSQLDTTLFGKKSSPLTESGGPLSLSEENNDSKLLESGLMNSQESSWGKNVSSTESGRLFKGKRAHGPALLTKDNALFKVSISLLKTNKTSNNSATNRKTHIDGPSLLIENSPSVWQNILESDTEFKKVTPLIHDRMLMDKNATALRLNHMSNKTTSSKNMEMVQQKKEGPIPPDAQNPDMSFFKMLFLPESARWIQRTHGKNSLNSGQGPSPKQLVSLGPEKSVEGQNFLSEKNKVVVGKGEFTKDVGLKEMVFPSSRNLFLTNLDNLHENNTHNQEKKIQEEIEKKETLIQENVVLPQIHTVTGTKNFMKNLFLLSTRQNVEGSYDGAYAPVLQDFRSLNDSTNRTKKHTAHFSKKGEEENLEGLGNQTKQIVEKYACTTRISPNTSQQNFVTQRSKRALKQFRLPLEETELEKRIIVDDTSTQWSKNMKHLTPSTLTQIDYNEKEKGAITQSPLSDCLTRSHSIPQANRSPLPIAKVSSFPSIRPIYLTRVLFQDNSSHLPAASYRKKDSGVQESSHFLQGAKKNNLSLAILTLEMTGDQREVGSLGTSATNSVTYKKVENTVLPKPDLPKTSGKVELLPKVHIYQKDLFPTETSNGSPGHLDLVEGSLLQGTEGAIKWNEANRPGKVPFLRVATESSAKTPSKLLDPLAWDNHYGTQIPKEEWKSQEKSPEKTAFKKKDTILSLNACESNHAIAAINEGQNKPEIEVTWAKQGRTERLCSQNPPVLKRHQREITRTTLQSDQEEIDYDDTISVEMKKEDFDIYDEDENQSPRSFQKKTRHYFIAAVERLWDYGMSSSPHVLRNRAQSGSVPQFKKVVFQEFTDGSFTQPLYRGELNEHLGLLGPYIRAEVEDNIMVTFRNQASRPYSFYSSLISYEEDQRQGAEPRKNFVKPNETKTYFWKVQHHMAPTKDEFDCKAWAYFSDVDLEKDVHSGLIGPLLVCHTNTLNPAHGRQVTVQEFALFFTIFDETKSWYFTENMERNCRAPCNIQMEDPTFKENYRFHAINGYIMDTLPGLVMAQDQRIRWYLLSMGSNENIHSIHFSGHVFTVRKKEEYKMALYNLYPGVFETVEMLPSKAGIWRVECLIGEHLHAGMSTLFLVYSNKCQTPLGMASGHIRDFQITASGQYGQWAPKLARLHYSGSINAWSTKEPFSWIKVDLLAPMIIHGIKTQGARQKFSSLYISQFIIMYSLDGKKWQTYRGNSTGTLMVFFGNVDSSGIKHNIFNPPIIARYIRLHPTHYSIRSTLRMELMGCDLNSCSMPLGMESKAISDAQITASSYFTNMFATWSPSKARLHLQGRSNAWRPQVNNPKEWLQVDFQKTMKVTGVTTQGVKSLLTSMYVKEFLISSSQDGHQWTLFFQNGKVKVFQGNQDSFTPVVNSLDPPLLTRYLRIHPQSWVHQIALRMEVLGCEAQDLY
CD16 (Homo sapiens), sequence (P08637 17-254): as the sequence (P08637 17-254) above

Substance: FVIII (from UniProt P00451)
Kd [1]: 0.2 nM

Substance: IgG1 Fc Fc (from UniProt P01857)
Kd [2]: 1000 nM

surface CD107a (LAMP1), % LAMP1^+ PTA-6967 NK cells by flow cytometry after 6 hours with 250 nM rFVIIIFc, against untreated cells (Figure 2E) [3]: 8 fold
EC50 of IFNγ secretion (ELISA) by CD16^+ NK cells (PTA-6967), overnight, rFVIIIFc 250 nM to 7.6 pM (Figure 2B) [4]: 6.4 nM
Substance: recombinant Factor VIII Fc-fusion protein (rFVIIIFc) (Fc fusion)
